Here are results for 1 protein from ChEMBL document CHEMBL1134791, “2- and 3-substituted 1,4-naphthoquinone derivatives as subversive substrates of trypanothione reductase and lipoamide dehydrogenase from Trypanosoma cruzi: synthesis and correlation between redox cycling activities and in vitro cytotoxicity” (J Med Chem, 2001).

As usually defined, the Vmax is the rate approached at saturating substrate.

Holding throughout (assay): Vmax is the maximum velocity of the TcTR (Trypanosoma cruzi trypanothione reductase) catalyzed NADPH oxidation.
Substrate in data set [1]: CC1=C(CCCC(=O)NCCCNCCCNC(=O)CCCC2=C(C)C(=O)c3cccc(O)c3C2=O)C(=O)c2c(O)cccc2C1=O
Substrate in data set [2]: CC1=C(CCC(=O)NCCCCNCCCNC(=O)CCC2=C(C)C(=O)c3cccc(O)c3C2=O)C(=O)c2c(O)cccc2C1=O
Substrate in data set [3]: CC1=C(CCC(=O)NCCCNCCCNC(=O)CCC2=C(C)C(=O)c3ccccc3C2=O)C(=O)c2ccccc2C1=O
Substrate in data set [4]: CC1=C(CCCCC(=O)NCCCCNCCCNC(=O)CCCCC2=C(C)C(=O)c3cccc(O)c3C2=O)C(=O)c2c(O)cccc2C1=O
Substrate in data set [5]: CC1=CC(=O)c2c(O)cccc2C1=O
Substrate in data set [6]: CC1=C(CCCCCC(=O)NCCCN2CCN(CCCNC(=O)CCCCCC3=C(C)C(=O)c4ccccc4C3=O)CC2)C(=O)c2ccccc2C1=O
Substrate in data set [7]: CC1=C(CCC(=O)NCCCNCCCNC(=O)CCC2=C(C)C(=O)c3cccc(O)c3C2=O)C(=O)c2c(O)cccc2C1=O
Substrate in data set [8]: CC1=C(CCCCCC(=O)NCCCCNCCCNC(=O)CCCCCC2=C(C)C(=O)c3cccc(O)c3C2=O)C(=O)c2c(O)cccc2C1=O
Substrate in data set [9]: CC1=C(CCCC(=O)NCCCN2CCN(CCCNC(=O)CCCC3=C(C)C(=O)c4cccc(O)c4C3=O)CC2)C(=O)c2c(O)cccc2C1=O
Substrate in data set [10]: CC1=C(CCCCCC(=O)NCCCN2CCN(CCCNC(=O)CCCCCC3=C(C)C(=O)c4cccc(O)c4C3=O)CC2)C(=O)c2c(O)cccc2C1=O
Substrate in data set [11]: CC1=C(CCCC(=O)NCCCNCCCNC(=O)CCCC2=C(C)C(=O)c3ccccc3C2=O)C(=O)c2ccccc2C1=O
Substrate in data set [12]: CC1=C(CCC(=O)NCCCN2CCN(CCCNC(=O)CCC3=C(C)C(=O)c4ccccc4C3=O)CC2)C(=O)c2ccccc2C1=O
Substrate in data set [13]: CC1=C(CCC(=O)NCCCCNCCCNC(=O)CCC2=C(C)C(=O)c3ccccc3C2=O)C(=O)c2ccccc2C1=O
Substrate in data set [14]: CC1=C(CCCCCC(=O)NCCCNCCCNC(=O)CCCCCC2=C(C)C(=O)c3cccc(O)c3C2=O)C(=O)c2c(O)cccc2C1=O
Substrate in data set [15]: CC1=C(CCCCCC(=O)NCCCCNCCCNC(=O)CCCCCC2=C(C)C(=O)c3ccccc3C2=O)C(=O)c2ccccc2C1=O
Substrate in data set [16]: CC1=C(CCCCC(=O)NCCCCNCCCNC(=O)CCCCC2=C(C)C(=O)c3ccccc3C2=O)C(=O)c2ccccc2C1=O
Substrate in data set [17]: CC1=C(CCCCC(=O)NCCCNCCCNC(=O)CCCCC2=C(C)C(=O)c3ccccc3C2=O)C(=O)c2ccccc2C1=O
Substrate in data set [18]: CC1=C(CCCC(=O)NCCCCNCCCNC(=O)CCCC2=C(C)C(=O)c3cccc(O)c3C2=O)C(=O)c2c(O)cccc2C1=O
Substrate in data set [19]: CC1=C(CCCCC(=O)NCCCN2CCN(CCCNC(=O)CCCCC3=C(C)C(=O)c4ccccc4C3=O)CC2)C(=O)c2ccccc2C1=O
Substrate in data set [20]: CC1=CC(=O)c2ccccc2C1=O

B1: Trypanothione reductase (Trypanosoma cruzi), P28593 (protein)
chain: MMSKIFDLVVIGAGSGGLEAAWNAATLYKKRVAVIDVQMVHGPPFFSALGGTCVNVGCVPKKLMVTGAQYMEHLRESAGFGWEFDRTTLRAEWKKLIAVKDEAVLNINKSYEEMFRDTEGLEFFLGWGSLESKNVVNVRESADPASAVKERLETENILLASGSWPHMPNIPGIEHCISSNEAFYLPEPPRRVLTVGGGFISVEFAGIFNAYKPKDGQVTLCYRGEMILRGFDHTLREELTKQLTANGIQILTKENPAKVELNADGSKSVTFESGKKMDFDLVMMAIGRSPRTKDLQLQNAGVMIKNGGVQVDEYSRTNVSNIYAIGDVTNRVMLTPVAINEAAALVDTVFGTNPRKTDHTRVASAVFSIPPIGTCGLIEEVASKRYEVVAVYLSSFTPLMHNISGSKYKTFVAKIITNHSDGTVLGVHLLGDNAPEIIQGVGICLKLNAKISDFYNTIGVHPTSAEELCSMRTPSYYYVKGEKMEKPSEASL
For B1, the Vmax in data set [1] worked out at 4.29 µM/min/mg; in data set [3] it was 1.3 µmol/min/mg; in [4], 3.11 µM/min/mg; in data set [5], 0.31 µM/min/mg; in data set [6], 0.47 µM/min/mg; in data set [7], 12.4 µM/min/mg. In addition, the Vmax in data set [8] is 5.91 µM/min/mg; in data set [9] it was 2.16 µM/min/mg; in [10], 1.61 µM/min/mg; in [11], 0.45 µM/min/mg; in data set [12] it was 0.74 µM/min/mg; in data set [13], 1.83 µM/min/mg. In addition, the Vmax in data set [14] came out at 4.87 µM/min/mg; in data set [15] it was 1.2 µM/min/mg; in data set [16], 1.11 µM/min/mg; in data set [17], 0.34 µM/min/mg; in [18], 4 µM/min/mg; in [19], 1.61 µM/min/mg. In data set [20], the maximum rate (Vmax) was found to be 0.26 µM/min/mg. In addition, in [2], the Vmax (µM min-1 mg-1) was 4.44.
